Source: doi:10.1101/2025.01.22.633148 (bioRxiv, 2025)

Experiments:
[1] = target: Human Rpn1, full-length, recombinant (human, UniProt Q13200 1-908); assay: ITC
[2] = target: Hsp70 nucleotide-binding domain (Hsp70NBD); assay: ITC

Sequence of Human Rpn1, full-length, recombinant (Q13200 whole entry, the tested form may be a part): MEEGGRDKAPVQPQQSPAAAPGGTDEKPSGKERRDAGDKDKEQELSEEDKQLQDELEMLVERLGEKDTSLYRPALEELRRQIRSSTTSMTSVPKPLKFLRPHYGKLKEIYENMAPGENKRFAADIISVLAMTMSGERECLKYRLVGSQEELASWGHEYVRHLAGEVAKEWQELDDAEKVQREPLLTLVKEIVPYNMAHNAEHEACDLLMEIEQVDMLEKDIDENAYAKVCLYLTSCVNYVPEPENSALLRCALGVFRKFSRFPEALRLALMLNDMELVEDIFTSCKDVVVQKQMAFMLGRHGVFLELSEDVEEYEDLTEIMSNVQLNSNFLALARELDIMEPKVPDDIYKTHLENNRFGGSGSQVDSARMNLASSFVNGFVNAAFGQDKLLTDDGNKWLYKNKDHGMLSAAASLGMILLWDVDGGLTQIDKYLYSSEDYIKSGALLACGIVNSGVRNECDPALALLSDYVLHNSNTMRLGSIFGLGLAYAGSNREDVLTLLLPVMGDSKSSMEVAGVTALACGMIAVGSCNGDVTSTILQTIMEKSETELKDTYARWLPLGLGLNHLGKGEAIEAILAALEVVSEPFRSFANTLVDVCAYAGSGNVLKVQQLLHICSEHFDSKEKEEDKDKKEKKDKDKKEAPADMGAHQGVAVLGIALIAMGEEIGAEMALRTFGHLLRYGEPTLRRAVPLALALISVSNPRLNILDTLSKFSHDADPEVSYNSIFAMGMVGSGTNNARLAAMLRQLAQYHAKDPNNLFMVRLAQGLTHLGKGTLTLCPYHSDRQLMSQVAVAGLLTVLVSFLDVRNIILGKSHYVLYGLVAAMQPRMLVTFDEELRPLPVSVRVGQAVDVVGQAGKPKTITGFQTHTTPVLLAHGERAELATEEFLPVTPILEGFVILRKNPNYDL

B1: Bag1 (Bcl-2 associated anthanogene 1), full-length (natural protein)
chain: MNRSQEVTRDEESTRSEEVTREEMAAAGLTVTVTHSNEKHDLHVTSQQGSSEPVVQDLAQVVEEVIGVPQSFQKLIFKGKSLKEMETPLSALGIQDGCRVMLIGKKNSPQEEVELKKLKHLEKSVEKIADQLEELNKELTGIQQGFLPKDLQAEALCKLDRRVKATIEQFMKILEEIDTLILPENFKDSRLKRKGLVKKVQAFLAECDTVEQNICQETERLQSTNFALAE
[1]
  Kd: ~500 nM
[2]
  Kd: 50 nM
